The text below walks through data of patent US20170226208A1 (SUPPREMOL, published 2017).

What is called koff is the first-order rate constant of dissociation.

Experiment [1] addresses FcεRI at the surface of basophils (human) (UniProt P12319). Kind of experiment: cell-based or functional assay.
Experiment [2] has as its target T1, recombinant soluble human FcγRIIB (human, UniProt P31994 43-217).
T1 construct: also called sFcγRIIB; SM101
T1 sequence: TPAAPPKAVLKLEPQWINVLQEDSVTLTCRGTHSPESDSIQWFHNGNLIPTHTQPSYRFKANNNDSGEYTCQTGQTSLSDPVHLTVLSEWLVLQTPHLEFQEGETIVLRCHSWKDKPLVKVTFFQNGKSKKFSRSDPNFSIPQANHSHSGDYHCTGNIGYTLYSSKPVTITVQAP
Kind of experiment: antigen-specific ELISA, sFcγRIIB coated, hybridoma supernatant. A general note: In an ELISA, binding on a coated surface is turned into a signal by an enzyme label.
Description: Fusion of the myeloma cell line with the rat immune spleen cells was performed according to standard procedures. […] MAbs from tissue culture supernatant bound to the proteins were detected with HRP conjugated mAbs against the rat IgG isotypes (TIB173 anti-IgG2a, TIB174 anti-IgG2b, TIB170 anti-IgG1 all from ATCC, R-2c anti-IgG2c homemade), thus avoiding mAbs of IgM class. […] A FACS based assay was used to screen the antibodies for specific binding of the native antigen). Additionally the antibodies were screened for non-blocking characteristics, i.e. these antibodies still allow binding of IgG or immune complexes to membrane-bound FcγRIIB.

The target in experiment [3] is T2, recombinant soluble human FcγRIIB (UniProt P31994 43-217).
T2 chain: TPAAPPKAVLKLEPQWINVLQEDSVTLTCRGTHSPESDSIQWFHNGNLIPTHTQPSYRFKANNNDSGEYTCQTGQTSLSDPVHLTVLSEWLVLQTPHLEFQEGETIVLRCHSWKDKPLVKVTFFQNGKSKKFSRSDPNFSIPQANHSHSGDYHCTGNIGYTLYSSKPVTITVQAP
Kind of experiment: SPR; wildtype Fc format. Background: SPR reads the build-up and loss of mass on a sensor chip optically.

In experiment [4] the target is T3, native FcγRIIB expressed on cells (Raji, Daudi, PBMC B cells) (human, UniProt P31994 43-310).
T3 sequence (looked up): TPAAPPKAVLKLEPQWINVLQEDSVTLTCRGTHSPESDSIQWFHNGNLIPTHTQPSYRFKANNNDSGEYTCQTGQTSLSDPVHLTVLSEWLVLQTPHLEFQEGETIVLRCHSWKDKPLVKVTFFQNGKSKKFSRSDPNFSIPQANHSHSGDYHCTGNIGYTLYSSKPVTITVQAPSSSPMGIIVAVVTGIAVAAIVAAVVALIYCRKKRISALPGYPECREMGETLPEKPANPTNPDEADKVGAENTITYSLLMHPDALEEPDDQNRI
Put plainly: cell-based or functional assay.

Experiment [5] addresses T2, recombinant soluble human FcγRIIB. Put plainly: SPR; N297A format.

Chain of FcεRI at the surface of basophils (human) (P12319 26-257): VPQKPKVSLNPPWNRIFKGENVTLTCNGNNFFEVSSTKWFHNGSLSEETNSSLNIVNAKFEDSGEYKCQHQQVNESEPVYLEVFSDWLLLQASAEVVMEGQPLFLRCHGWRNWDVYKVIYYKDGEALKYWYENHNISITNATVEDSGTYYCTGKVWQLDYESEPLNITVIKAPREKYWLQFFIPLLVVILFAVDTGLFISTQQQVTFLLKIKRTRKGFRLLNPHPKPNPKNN

B1: ch8A6_cε2-4-degly (bispecific antibody, part only; not given: CH1, CL and IgE Fc domains, not shown: a dimerising Fc or GST)
heavy, part: EVQLVESGGDLVQPGRSLRLSCAASGFTFSDYYMAWVRQAPKKGLEWVASISSDGSNTYYGDSVKGRFTISRDNTRSNLYLQMNSLRSEDTATYYCARPGDYWGQGVMVTVSS
light, part: NIVMTQSPTSMFISVGDRVTMNCKASQNVGTYVDWFQQKTGQSPTLLIFGASNRYTGVPDRFTGSGSGTDFTLSISNMQAEDLAVYYCLQYNYHPYTFGPGTTLELKR
In experiment [1], B1 displayed a basophil activation by pollen, CD63-positive basophils, after 2 h incubation with antibody (% positive cells) of 84.4 to 88; a basophil activation by pollen, CD63-positive basophils, after 6 h incubation with 0.5 µg/ml antibody of 76.6%; a basophil activation by pollen, CD63-positive basophils, after 6 h incubation with antibody of 76 to 84%.

B2: monoclonal antibody 8A6 (rat IgG2a) (antibody, V domains shown)
VH: EVQLVESGGDLVQPGRSLRLSCAASGFTFSDYYMAWVRQAPKKGLEWVASISSDGSNTYYGDSVKGRFTISRDNTRSNLYLQMNSLRSEDTATYYCARPGDYWGQGVMVTVSS
VL: NIVMTQSPTSMFISVGDRVTMNCKASQNVGTYVDWFQQKTGQSPTLLIFGASNRYTGVPDRFTGSGSGTDFTLSISNMQAEDLAVYYCLQYNYHPYTFGPGTTLELKR
notes: Rat IgG2a from hybridoma supernatant; also called mAb 8A6; rat antibody 8A6
With B2, the binding result in experiment [2] was “binds”.

B3: ch8A6_wt (antibody)
chain 1: EVQLVESGGDLVQPGRSLRLSCAASGFTFSDYYMAWVRQAPKKGLEWVASISSDGSNTYYGDSVKGRFTISRDNTRSNLYLQMNSLRSEDTATYYCARPGDYWGQGVMVTVSS
chain 2: NIVMTQSPTSMFISVGDRVTMNCKASQNVGTYVDWFQQKTGQSPTLLIFGASNRYTGVPDRFTGSGSGTDFTLSISNMQAEDLAVYYCLQYNYHPYTFGPGTTLELKR
For B3, in experiment [3], the off-rate (koff) was 0.00049 s⁻¹.

B4: chGB3_N297A (antibody, V domains shown)
VH: VQLQQSGPELVKPGASVKISCKASGYTFTDYYIYWVKQWPGQGLEWIGWIFPGTGNTYYNENFKDKATLTIDRSSSTAYMLLGSLTSEDSAVYFCYGPFAYWGQ
VL: RIQLTQSPSSLSASLGERVSLTCRASQEISGYLSWLQQKPDGTIKRLIYATSALDSGVPKRFSGSGSGSNYSLTISSLESEDFADYYCLQYANYPYTFGGGTKL
On to B4, for which, in experiment [4], the “FcγRIIB-ITIM phosphorylation, densitometry of Western blot, Daudi cells, against untreated cells” value is 2.8 fold. Also, in experiment [5], the koff was 0.01 s⁻¹.
